What was measured:
[1] = molecular target: T1, recombinant soluble human TNFSF13b (hTNFSF13b) (human, UniProt Q9Y275 134-285); assay: cell-based or functional assay
[2] = molecular target: Chimera B (human TNFSF13b K71P, T72I, Y73F) (human, UniProt Q9Y275 134-285); assay: cell-based or functional assay
[3] = molecular target: Chimera E (human TNFSF13b E105K) (human, UniProt Q9Y275 134-285); assay: cell-based or functional assay
[4] = molecular target: Chimera A (human TNFSF13b L139R, D140N) (human, UniProt Q9Y275 134-285); assay: cell-based or functional assay
[5] = molecular target: Chimera D (human TNFSF13b L53V, K55R, E56Q) (human, UniProt Q9Y275 134-285); assay: cell-based or functional assay
[6] = molecular target: T1, recombinant soluble human TNFSF13b …; assay: BIAcore 2000 SPR at 25 C; antibody captured by anti-human IgG Fc, hTNFSF13b as analyte from 50 nM in 2-fold dilutions; Langmuir 1:1 model
murine TNFSF13b = molecular target: T2, murine TNFSF13b (mouse, UniProt Q9WU72 127-309); assay: sandwich ELISA with 4A5-3.1.1-B4 as both capture and detecting mAb
T2 construct: Used as supernatants of CHO cells or 293 transfectants expressing murine TNFSF13b, and as purified protein; also called Mouse TNFSF13b; mouse TNFSF13b parent molecule
T2 sequence (Q9WU72 127-309 limits assumed): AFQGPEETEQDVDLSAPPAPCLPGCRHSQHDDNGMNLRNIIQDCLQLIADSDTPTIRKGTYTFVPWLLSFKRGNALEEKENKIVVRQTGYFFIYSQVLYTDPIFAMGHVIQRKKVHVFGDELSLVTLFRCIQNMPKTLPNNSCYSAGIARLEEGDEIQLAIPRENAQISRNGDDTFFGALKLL

neutralization of proliferation, 11 ng/ml purified TNFSF13b, 1 ug/ml of 4A5-3.1.1-B4 [1]: 100%
neutralization of proliferation, 293 supernatants, 6 ug/ml of 4A5-3.1.1-B4 [1]: 100%
neutralization of proliferation, 11 ng/ml purified TNFSF13b, 1 ug/ml of 4A5-3.1.1-B4 [2]: 88%
neutralization of proliferation, 293 supernatants, 6 ug/ml of 4A5-3.1.1-B4 [2]: 100%
neutralization of proliferation, 293 supernatants, 6 ug/ml of 4A5-3.1.1-B4 [3]: 100%
neutralization of proliferation, 11 ng/ml purified TNFSF13b, 1 ug/ml of 4A5-3.1.1-B4 [4]: 100%
neutralization of proliferation, 293 supernatants, 6 ug/ml of 4A5-3.1.1-B4 [4]: 100%
neutralization of proliferation, 293 supernatants, 6 ug/ml of 4A5-3.1.1-B4 [5]: 100%
Kd [6]: 0.038 nM
binding result (murine TNFSF13b): no binding
B1: human antibody 4A5-3.1.1-B4 (antibody, V domains shown)
VH: QVQLQQWGAGLLKPSETLSLTCAVYGGSFSGYYWSWIRQPPGKGLEWIGEINHSGSTNYNPSLKSRVTISVDTSKNQFSLKLSSVTAADTAVYYCARGYYDILTGYYYYFDYWGQGTLVTVSS
VL: EIVLTQSPATLSLSPGERATLSCRASQSVSRYLAWYQQKPGQAPRLLIYDASNRATGIPARFSGSGSGTDSTLTISSLEPEDFAVYYCQQRSNWPRTFGQGTKVEIKR
notes: Hybridoma-derived human monoclonal antibody from HuMAb mice, with a human kappa light chain; also called 4A5 mAb; 4A5-3.1.11-B4
